Patent US20160347804A1 (IPIERIAN, published 2016)
Where a chain is given by its changes, count along the chain named. Values belong to the binder of their own block, whether it stands above or below them.

Assays:
[1] = biological target: T1, eTau4 (human, UniProt P10636 2-124); experiment: direct binding ELISA, antibody titrated on eTau4, OD-450 nm
T1 construct: Recombinant eTau fragment; also called recombinant eTau4

[2] = biological target: full-length recombinant tau (0N4R) (UniProt P10636 1-383); experiment: direct binding ELISA, antibody titrated on rTau383, OD-450 nm
[3] = biological target: T2, eTau1 (human, UniProt P10636 2-547); experiment: direct binding assay, purified mAb, recombinant eTau fragment
T2 construct: also called recombinant eTau1 fragment; eTau 2-172

[4] = biological target: T3, eTau2 (human, UniProt P10636 2-526); experiment: as above
T3 construct: Recombinant eTau fragment; also called recombinant eTau2; reTau2

[5] = biological target: T4, eTau3 (human, UniProt P10636 2-497); experiment: as above
T4 construct: Recombinant eTau fragment; also called recombinant eTau3; reTau3

[6] = biological target: T1, eTau4; experiment: as above
[7] = biological target: T5, full-length recombinant tau (0N4R) (UniProt P10636-6 1-383); experiment: direct binding ELISA-type assay, purified mAb, full-length recombinant tau 0N4R
T5 construct: The screening step used biotin-labeled full-length tau; also called rTau383

[8] = biological target: T5, full-length recombinant tau (0N4R); experiment: direct binding ELISA, antibody titrated on rTau383, OD-450 nm

T5 sequence (P10636 other isoform, or with tags, fused parts or gaps limits assumed): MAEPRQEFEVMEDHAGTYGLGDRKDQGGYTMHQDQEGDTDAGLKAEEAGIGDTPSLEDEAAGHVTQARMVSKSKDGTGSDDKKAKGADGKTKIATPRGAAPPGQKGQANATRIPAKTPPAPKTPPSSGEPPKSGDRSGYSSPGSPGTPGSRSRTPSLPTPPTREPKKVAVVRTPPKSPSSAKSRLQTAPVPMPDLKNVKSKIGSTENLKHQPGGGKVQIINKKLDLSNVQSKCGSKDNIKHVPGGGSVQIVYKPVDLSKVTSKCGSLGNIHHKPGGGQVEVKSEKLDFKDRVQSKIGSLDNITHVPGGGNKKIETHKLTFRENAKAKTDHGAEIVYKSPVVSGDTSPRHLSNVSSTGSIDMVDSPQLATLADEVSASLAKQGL
T1 sequence (P10636 other isoform, or with tags, fused parts or gaps limits assumed): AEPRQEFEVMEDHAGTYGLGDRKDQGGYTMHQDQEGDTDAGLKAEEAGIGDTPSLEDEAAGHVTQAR
T3 sequence (P10636 other isoform, or with tags, fused parts or gaps limits assumed): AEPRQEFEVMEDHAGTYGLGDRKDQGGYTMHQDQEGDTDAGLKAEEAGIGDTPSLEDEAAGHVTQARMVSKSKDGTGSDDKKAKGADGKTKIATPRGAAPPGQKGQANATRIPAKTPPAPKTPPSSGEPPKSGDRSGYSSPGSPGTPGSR
T4 sequence (P10636 other isoform, or with tags, fused parts or gaps limits assumed): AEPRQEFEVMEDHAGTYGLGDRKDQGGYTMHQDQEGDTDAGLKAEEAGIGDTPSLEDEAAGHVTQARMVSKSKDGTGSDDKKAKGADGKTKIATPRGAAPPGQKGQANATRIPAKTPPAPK
T2 sequence (P10636 other isoform, or with tags, fused parts or gaps limits assumed): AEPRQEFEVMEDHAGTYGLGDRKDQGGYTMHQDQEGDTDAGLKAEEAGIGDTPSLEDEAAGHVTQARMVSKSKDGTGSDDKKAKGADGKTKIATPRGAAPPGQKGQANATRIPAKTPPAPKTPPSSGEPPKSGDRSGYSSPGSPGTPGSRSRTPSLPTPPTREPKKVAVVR

- EC50 (read off the curve) [1]: ~100 pM
- EC50 (read off the curve) [2]: ~70 pM
B1: IPN002 (antibody, V domains shown)
VH: EVHLVESGGALVKPGGSLKLSCAASGFSFSKYGMSWVRQTPDKRLEWVATISSSGSRTYYPDSVKGQFTISRDNAKNTLYLQMSSLKSEDTAMYYCSISWDGAMDYWGQGTSVTVSS
VL: DVLMTQTPLSLPVSLGDQASISCKSSQSIVHSNGNTYLEWYLQKPGQSPKLLVYKVSNRFSGVPDRFSGSGSGTDFTLKISRVEAEDLGTYYCFQGSLVPWAFGGGTKLEIK

- Kd [3]: 0.0528 nM
- binding result [4]: no binding
- binding result [5]: no binding
- binding result [6]: no binding
- Kd [7]: 0.117 nM
B2: 7295-M6 (antibody, V domains shown)
VH: EVQLEESGAELVRSGASVTLSCTASGFNIKDYYIHWVKQRPEQGLEWIGWIDPENGDTEYAPKFQGKATMTADTSSNTAYLQLSSLTSEDTAVYYCNGAPGYWGPGTTLTVSS
VL: DIVLTQTPLSLPVSLGDPASISCRSSQTIVHSNGNTYLEWYLQKPGQSPKLLIYKVSNRFSGVPDRFSGSGSGTDFTLKISRVEAEDLGVYYCFQGSHVPFTFGSGTKLEIKR
notes: also called anti-Tau mAb 7295-M6

- Kd [3]: 0.044 nM
- binding result [4]: no binding
- binding result [5]: no binding
- binding result [6]: no binding
- Kd [7]: 0.08 nM
B3: 7295-M8 (antibody, IgG2b, V domains shown)
VH: B2 VH
VL: B2 VL
notes: also called anti-Tau mAb 7295-M8

- Kd [3]: 0.1 nM
- Kd [4]: 0.09 nM
- binding result [5]: no binding
- binding result [6]: no binding
- Kd [7]: 2.21 nM
B4: 7297-2M1 (antibody, IgG1, V domains shown)
VH: EVQLEQSGAELVKPGASVKLSCKASGYTFISNWMHWVKQRPGQGLEWIGNIDPSDSETHYNQKFKDKATLTVDKSSSTAYMQLSSLTSEDSAVYYCARRDRDGYYFDYWGQGTTLTVSS
VL: DIVLTQTPSSLSASLGGKVTITCKASQDINKYIAWYQHKPGKGPRLLIHYTSTLQSGIPSRFSGSGSGRDYSFSISNLEPEDIATYYCLQYDHLLTFGAGTKLELKR
notes: also called anti-Tau mAb 7297-2M1

- Kd [3]: 0.6 nM
- Kd [4]: 1 nM
- Kd [5]: 0.6 nM
- Kd [6]: 0.5 nM
- Kd [7]: 0.511 nM
B5: 7299-M5 (antibody, IgG2b, V domains shown)
VH: B4 VH with Q3K, Q6E
VL: DIVMTQSPLSLSVTIGQPASISCKSSQSLLYSDGKTYLNWLQQRPGQSPKRLVYQVSKLDPGIPDRFSGSGSETDFTLKLSRVEAEDLGVYYCLQGTYYPHTFGGGTKLEIKR

- binding result [3]: no binding
- binding result [4]: no binding
- binding result [5]: no binding
- Kd [6]: 0.8 nM
- EC50 (read off the curve) [1]: ~30 pM
B6: 7299-M2 (antibody, IgG1, V domains shown)
VH: QVQLEESGAELVKPGASVKLSCKASGYTFTNYWINWVKQRPGQGLEWIGNIYPGSTRANYNEKFKSKATLTVDTSSSTAYMQVSSLTSDDSAVYYCTRTHSIWGQGTQVTVSA
VL: DIVLTQTPLTLSVTIGQPASISCKSSQSLLYSDGKTFLNWLLQSPGQSPRLLIYLVSKLQSGVPDRFSGSGSGTDFTLKISRVEAEDLGVYYCVQGTHFPYTFGGGTKLEIKR
- binding result [8]: no binding (tested: log -8.2 M (about 6e-9 M))

- Kd [3]: 0.6 nM
- Kd [4]: 0.7 nM
- Kd [5]: 1 nM
- Kd [6]: 0.6 nM
- Kd [7]: 0.277 nM
B7: 7299-M9 (antibody, IgG1, V domains shown)
VH: B6 VH with Q1E, Q3K, E6Q
VL: B5 VL with M4I

- Kd [3]: 3 nM
- Kd [4]: 1 nM
- Kd [5]: 0.1 nM
- binding result [6]: no binding
- Kd [7]: 6.68 nM
B8: 7298-M1 (antibody, IgG2a, V domains shown)
VH: EVQLEESGGGLVQPGGSLSLSCAASGFTFTDYYMSWVRQPPGKALEWVALNRNKTKGYTTEYSASVKGRFTISRDNSQSILYLQMNALRAEDSATYYCARGMDYWGQGTSVTVSS
VL: DIVLTQSPTSLAVSLGQRATISCRASKSVSTSDYSYMHWYQQKPGQPPKLLIYLASNLESGVPARFSGSGSGTDFTLNIHPVEEEDAATYYCQHSRELPFTFGGGTKLEIKR
notes: also called anti-Tau mAb 7298-M1

- Kd [3]: 2 nM
- Kd [4]: 0.7 nM
- Kd [5]: 0.08 nM
- binding result [6]: no binding
- Kd [7]: 4.41 nM
B9: 7298-M2 (antibody, IgG2a, V domains shown)
VH: EVQLEESGGGLVKPGGSLKLSCAASGFTFSTYPMSWVRQTPEKRLEWVASISNGGSTYYPDTVKGRFTISRDNARNILYLQMSSLRSEDTAMYYCARGRDYHFDFWGQGTTLTVSS
VL: B8 VL
notes: also called anti-Tau mAb 7298-M2
